Laboratory results from the nanobody polyreactivity screen of Harvey et al. (2022).

Experiment: yeast display, Sf9 membrane polyspecificity reagent, FACS + sequencing; frameworks hold sequencing errors
Outline: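 In a synthetic yeast display library (Saccharomyces cerevisiae BJ5465), nanobody expression was induced with galactose for 36–48 hours. FACS gates were set low and high (top ~1%) using anti-HA fluorescence for expression and streptavidin fluorescence for binding of the Sf9 membrane reagent. Each polyreactivity label is drawn from the gate of origin.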
With “QVQLVESCGGLVQAGGSLRLSCAASGRIFQTYAMGWYRQAPGKERELVASISWSGGSTYYADSVKGRFTILRDNAKNTVYLQMNSLKPEDTAVYYCAAVYYSTDYYFWYDYWGQGTQVTVSS” the “polyreactivity (PSR sort gate)” value was “low polyreactivity”. In the case of “QVQLVESCGGLVQAGGSLRLSCAASGRIFRWYAMGWYRQAPGKERELVARITSGGSTNYADSVKGRFTISRDNAKNTVYLQMNSLKPEDTAVYYCARDWGKSEYEYWGQGTQVTVSS”, the “polyreactivity (PSR sort gate)” value is reported as “high polyreactivity”. In the case of “QVQLVESCGGLVQAGGSLRLSCAASGRILSSYAMGGNRQAPGKERELVADITQRGGTTYYADSVKGRFSISRDNAKNTVYLQMNRLKPEDTAVYYCNAKSYRSYGGRGGVEYDYCGQGTQVTVSS”, the “polyreactivity (PSR sort gate)” value is reported as “low polyreactivity”. For “QVQLVESCGGLVQAGGSLRLSCAASGRTFRSYTMGWYRQAPGKERELVASIRTSSGCTYYADSVKGRFTISRDNAKNSVYLKMNSLKPEDTAVYYCAKTLLYPWFRTVAVDYWGQGTQVTVSS”, the “polyreactivity (PSR sort gate)” value was “low polyreactivity”. In the case of “QVQLVESCGGLVQAGGSLRLSCAASGSIFRYNAMGWYRQAPWKEWELVAAIRSGSGTNYADSVKGRFTISRDNAKNTVFLQMNSLKPEDTAVYYCNAQPWYRTKYDYWGQGNQVTVSS”, the “polyreactivity (PSR sort gate)” value is reported as “low polyreactivity”. With “QVQLVESCGGLVQAGGSLRLSCAASGSTFWKYVMGWYRQAPGKDRELVAAISGRGGSTYYADSVKGRFTISRDNAKNTVYLQMNSLKPEDTAVYYCAKVHTRRKPYNSWGQGTQVTVSS” the “polyreactivity (PSR sort gate)” value was “high polyreactivity”. In the case of “QVQLVESCGGLVQAGGSLRLSCAGSGITIYSYAMGWYRQAPGKERELVAAITLTGGTTYYADSVKGRFTISRDNAKNTVYLQMNSLKPEDTAVYYCNADYGGGVDGTYKYYSEYDYWGQGTQVTVSS”, the “polyreactivity (PSR sort gate)” value is reported as “low polyreactivity”. With “QVQLVESCGGLVQAGGSLRLSCASSGRNFPVKAMGWYRQAPGKERELVAGITWSGDGSTYYADSVKGRFTISRDNAKNTVYLLMNSLKPEDTAVYYCAARLNLQGRYDYWGQGTQVTVSS” the “polyreactivity (PSR sort gate)” value was “low polyreactivity”. For “QVQLVESCGGLVQAGGSLRLSCPASGSIFHVNVMGCYRQEPGKERELVAAITYSGGATYYADSVKGRFTISRDNAKNTVYLQMNSLKPEDTAVYYCAAYPYWFFPHYDSWGQGTLVTVSS”, the “polyreactivity (PSR sort gate)” value was “low polyreactivity”. In the case of “QVQLVESCGGLVQAGGSLRLSCSASGFIIPYYAMGWYRQAPGKERELVAAISYSGDSTYYADSVKGRFTISRDNAKNTVYLLMISLKPEDTAVYYCAADVEQYYPLLTFDYCGQGTQVTVSS”, the “polyreactivity (PSR sort gate)” value is reported as “low polyreactivity”. For “QVQLVESCGGLVQAGGSLRVSCAASGITFDGYAMGSYRQAPGKERELVAAITRRGGNTYYADSVKGRFTISRDNAKNTVHLQLNSQKPEDTAFYYCNAQVVHYRVSSVITYTIYDYSGQGTQVTVSS”, the “polyreactivity (PSR sort gate)” value was “high polyreactivity”. For “QVQLVESCGGLVQAGGSLSLSCAASGRILYYYAMGWYRQAPGKERELVAAITSGGSTYADSVKGRFTISRDNAKNTVYLQMNSLKPEDTAVYYCNADYTVYDTEYDYWGQGTQVTVSS”, the “polyreactivity (PSR sort gate)” value was “low polyreactivity”. For “QVQLVESCGLLVQAGGSLRLSCAASGSIIVYNTMRCYRQAPGKERELVAAIYSSGGSTYYADSVKGRFTISRDNAKNTVYLQMNILKPEDTAVYYCAAVNGYQYPPYYYNGYDYWGQGTHVTVSS”, the “polyreactivity (PSR sort gate)” value was “low polyreactivity”. In the case of “QVQLVESDGGLDQAGGSLRLSCPASGIIFGYYVMGRYRQAPGKERELVASITSGGSTNYADSVKGRFTISRDNAKNTVYLQMNSLKPEDTAVYYCAAEERTDTIPGWRYPHDYWGQGTQVTVSS”, the “polyreactivity (PSR sort gate)” value is reported as “low polyreactivity”. In the case of “QVQLVESEGGLVQAGGSLRLSCAASGRTYYAMGWYRQAPGKERELVAAISGTGASTYYADSVKGRFTISRDNAKNTVYLQMNSLKPEDTAVYYCAAEWFYYNTQQWFDYWGQGTQVPVSS”, the “polyreactivity (PSR sort gate)” value is reported as “low polyreactivity”. For “QVQLVESEGGLVQAGGSLRLTCAASGFIYKGYAMGSYRQAPGKETELVAAISSSGTSTYYADSVKGRFTISRDNAKNTVYLQMNSLKPEDTAVYYCARVSKRTWSGYYYWGQGTQVTVSS”, the “polyreactivity (PSR sort gate)” value was “high polyreactivity”. With “QVQLVESGAALVQAGGSLRLSCAASGFIIAVYAMGWYRQAPGKERELVAAITRSGGSTYYADSVKGRFTISRDNAKNTFYLQMNSLKPEDSAVYYCAARNTQPASYGYGYWGLGTQVTVSS” the “polyreactivity (PSR sort gate)” value was “high polyreactivity”. With “QVQLVESGAALVQAGGSLSLSCAASGLTFYYYAMGWYRQAPGKERELVAAITSGGSTNYADSVKGRFTISRDNAKNTVFLQINSLKPEDTAVYYCAADPRYSFWGMYYWGLGTQVTVSS” the “polyreactivity (PSR sort gate)” value was “low polyreactivity”. With “QVQLVESGAGIVQAGGSLRLSCAASGIIFNLYAMGWYRQAPGKERELVASISIGGSTNYADSVKGRFTISRDNAKNTVYLQMNSLKPEDTAVYYCAAALYEATYDANGLDMDYWGQGTQVTVSS” the “polyreactivity (PSR sort gate)” value was “high polyreactivity”. In the case of “QVQLVESGAGIVQAGGSLRLSCAASGRIFRYNAMGLYRQAPGKERELVAAITWSGVSTYYAHSVKGRFTISRDTAKITVFLQMNSLYPEDTGVYYCNGRRWPAWSSYDYWGQGTQVNVSS”, the “polyreactivity (PSR sort gate)” value is reported as “high polyreactivity”. For “QVQLVESGAGIVQAGGSLRLSCAASVSTFQSYAMGLYRPAPGKERELFAAISFSGGSTYYADSVKGRFTISRDNAKNTVYLQMNSLKPEDTAVYYCAKRGWVYFHGYDYWGQGTQVTVSS”, the “polyreactivity (PSR sort gate)” value was “low polyreactivity”. In the case of “QVQLVESGAGLFQAGGSLRISCAASGLIFDGYAMGWYRQATGKERELVAAITRSGGSTSYADSVKARFTISRDNAKNTVYLHMNSLKPEDTAVYYCAAKVHTFYYHYYSWGQGTQVTVSS”, the “polyreactivity (PSR sort gate)” value is reported as “high polyreactivity”. In the case of “QVQLVESGAGLGQAGVSLRLSCAASGSTFPTYAMGWYRPAPGKERELVAAIDWSDGTTYYADSVKGRFTISRDNANNTVYLQMNSLKPDETAGYYCAASLSLSEYDYWGQATQVTVSS”, the “polyreactivity (PSR sort gate)” value is reported as “low polyreactivity”. For “QVQLVESGAGLLQAGGSLRLSCAASGITLRRNTMGWYRQAPGKERELVAAITRSGGSTYYADSVKGRVTISRDNAKNTVYLQINSLKPEVTAVYYCAEGPSYGGPSHVYWRQGTQVTVSS”, the “polyreactivity (PSR sort gate)” value was “high polyreactivity”. With “QVQLVESGAGLVQAGASLRLSCAASGRIFSRYVMGWYRQAPGKEREFVASITWSGSSTYYADSVKGRFTLSRDNAKNTVYVQMNSLKPEDTAVYYCAALGLLSPSPWGTHIYEYDSWGQGTQVTVSS” the “polyreactivity (PSR sort gate)” value was “low polyreactivity”. In the case of “QVQLVESGAGLVQAGGRIRLSCAASGRTLYGNTMGWYRPAPWKERELVAAINWSGGRTRYADSVKGRFTNSRDNAKNTVYVEMNSVKPEDTAVYYCAATKRANHERFGSWGQGTQVTVSS”, the “polyreactivity (PSR sort gate)” value is reported as “high polyreactivity”. In the case of “QVQLVESGAGLVQAGGRIRLTCAASRSILRGYAMGWYRQAPGKERELVAAITWNGGSTYYADSVKGRFTISRDNANNTVYLHMISLKPEDTAVYYFNRAIGPYSYPDNYWGQGTQVTVSS”, the “polyreactivity (PSR sort gate)” value is reported as “high polyreactivity”. For “QVQLVESGAGLVQAGGRLRLSCAASGFTFRAYDMGWSRQAPAKERELVAAINISGGSTYYADSVKGRFTISRDNAKNTVYLQMNSLKPVDTAVYYCAAVPWVGTLYPRVGYWGQGTQGTVSS”, the “polyreactivity (PSR sort gate)” value was “low polyreactivity”. In the case of “QVQLVESGAGLVQAGGRLRLSCAATGLTFYFYVMGWYRQAPGKERELVADISTSDDSTYYADSVKGRFTISRDNAKNTVYLQMNSLKPEDTSVYYCATATRTYSAWYEYDYWGQVTQVTVSS”, the “polyreactivity (PSR sort gate)” value is reported as “low polyreactivity”. In the case of “QVQLVESGAGLVQAGGSLRLCCAASGFIFYLNTMGWYRQAPGKERELVAGITWRGGTTYYADSVKGRFTISRDNAKNSVYLQMNSLKPEDTAVYYCAARRYSRPYSYGFYYWGQGTLVTVSS”, the “polyreactivity (PSR sort gate)” value is reported as “high polyreactivity”. With “QVQLVESGAGLVQAGGSLRLCCAASGRIFDWYVMGWYRQAPGKEWELVAAINSGVSTKYADSVKGRFTISRDNAKNTVYLQMNSLKPEDTAVYYCAAQSFSDYRRTGRKSSYYYWGQVTQVTVSS” the “polyreactivity (PSR sort gate)” value was “low polyreactivity”.
